# Data as given in the nanobody polyreactivity screen of Harvey et al. (2022).
# Assay: yeast display, Sf9 membrane polyspecificity reagent, FACS + sequencing; frameworks hold sequencing errors
# In short: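 Nanobodies from a synthetic yeast display library (Saccharomyces cerevisiae BJ5465), induced 36–48 hours with galactose, were stained 1 hour at 4 °C with 10% biotinylated, detergent-solubilized Sf9 membrane reagent, enriched on streptavidin microbeads, then FACS-sorted. Anti-HA (expression) and streptavidin (reagent binding) fluorescence set low and high (top ~1%) gates. Polyreactivity labels come from the gate of origin. Genes were colony-PCR amplified, MiSeq 2 × 250 sequenced and filtered by CDR length.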
row,Sequence,polyreactivity (PSR sort gate)
1,QVQLVESGGGLVQAGGSLRLSCAASGFTFPFNAMGWYRQAPGKERELVAAISQRTGRTYYADSVKGRFTISRDNAKNTVYLQMNSLKPEDTAVYYCNARTGTTGYGRYDYWGQGTQVTVSS,high polyreactivity
2,QVQLVESGGGLVQAGGSLRLSCAASGFTFPGNAMGWYRQAPGKERELVAAISRSGAGTYYADSVKGRFTISRDNAKNTDYLQMNRLKPEDTAVYYCNAVYSSWDYHYRYGYWGQGTQVTVSS,high polyreactivity
3,QVQLVESGGGLVQAGGSLRLSCAASGFTFPHYAMGWYRQAPGKERELVAAISWSGGNTYYADSVKGRFTISRDNAKNTVYLQMNSLKPEDTAVYYCAKGYSSHYWWAYDSWGQVTQVTVSS,high polyreactivity
4,QVQLVESGGGLVQAGGSLRLSCAASGFTFPHYAMGWYRQAPGKERELVAVISWSGSSTYYADSVKGRFTISRDNAMNTVYLQMNSLKPEDTAVYYCNTRKLYQVDYDYWGQGTQVTVSS,high polyreactivity
5,QVQLVESGGGLVQAGGSLRLSCAASGFTFPQYAMGWYRQAPGKERELFAAISKRSGGTRYADSGKGRFTISRDNSKNTVYLHMKSLKPEDTAVNYCINYGQVPGYFTLEYLGQGTQVTVSS,high polyreactivity
6,QVQLVESGGGLVQAGGSLRLSCAASGFTFPRYAMGWYRQAPGKERELVAAISYSGGRTYYADSVKGRFTISRDNAKNTVYFQMNSLKPEDTAVYYFATEASTKRYDYWGQGTQVSVSS,high polyreactivity
7,QVQLVESGGGLVQAGGSLRLSCAASGFTFPVNAMGWYRQAPGKERELVATINSGGSTNYADSVKGRFTISRDNAKNTVYLQMNSLKPEDTAVYYCAAAKRTADYASYWYVENDYWGQGTQVTVSS,low polyreactivity
8,QVQLVESGGGLVQAGGSLRLSCAASGFTFPVYTMGWYRQAPGKERELVAAISGSGASTYYADSVKGRFTISRDNAKNTVYLQMNSLKPEDTAVYYCAAPLWRNYYFGWMDYWGQGTQVTVSS,high polyreactivity
9,QVQLVESGGGLVQAGGSLRLSCAASGFTFPWNVMGWYRQAPGKEREFVAAISKSAGSTFYADSVKGRFTISRDNAKNTVYLQMNSLKPEDTAVYFCAKPRVPGVHVQEMYYWGQGTQVTVSS,low polyreactivity
10,QVQLVESGGGLVQAGGSLRLSCAASGFTFPWYAMGSSRQAPGKERELVASISYRGDSTYYADSVKGRFTISRDNAKKTVNLQMNSLKPEDTAVYYCNKRLASYYLPGFDYWGQGTQVTVSS,low polyreactivity
11,QVQLVESGGGLVQAGGSLRLSCAASGFTFPWYAMGWYRQAPGKERELVAVISSSGGSTYYADSVKGRFTISRDNAKNTVYLQMNSLKPEDTAVYYCNKDYYKRAYLFGYWGQGTQVTVSS,high polyreactivity
12,QVQLVESGGGLVQAGGSLRLSCAASGFTFPYNAMGWYRQAPGKERELVAAISSTGGITYYADSVKGRFTISRDNAKNTVYLQLNSLKPEDTAVYYCGWYDYWGLGTQVTVSS,low polyreactivity
13,QVQLVESGGGLVQAGGSLRLSCAASGFTFPYNGMGWYRQAPGKERELVASISWSGASTYYADSVKGRFTISRDNAKNTVYLQMNSLKPEDTAVYYCAADPGYYSWGSSQDDYWGQGTQVTVSS,low polyreactivity
14,QVQLVESGGGLVQAGGSLRLSCAASGFTFPYYAMGWYRPAPGKDRELVARISSGGSTHYADSVKGRFTISRDNAKNTVYVQMNSLKPEDTADYYCAREPWWGYHGEYDYWGQGTEVTVSS,high polyreactivity
15,QVQLVESGGGLVQAGGSLRLSCAASGFTFPYYAMGWYRPAPGKERELVAAISWIGDSTYYADSVKGRFTISRDNAKNTVYLQMNSLKPEDTAVYYCAAGYKWSIPNRDYDYWGQGTQVTVSS,low polyreactivity
16,QVQLVESGGGLVQAGGSLRLSCAASGFTFPYYAMGWYRQAPGKERELVATISNGGNTYYADSVKGRFTISRDNAKNTVYLQMNSLKPEDTAVYYCNAVVWAWMGYWGQGTQVTVSS,high polyreactivity
17,QVQLVESGGGLVQAGGSLRLSCAASGFTFPYYAMGWYRQAPGTERELVASNSRSGSTNYADSVKGRFTISRDNAKNTVYLQMNSLKPEDTAVYYCAAQLYSRGGYWGHGTQVTVSS,high polyreactivity
18,QVQLVESGGGLVQAGGSLRLSCAASGFTFQAYAMGWYRQAPGKVRELVAAINFSTGRTYYADSVKGRFTISRDNAKNTVYLQMNSLKPEDTAVYYCAADGSWTRSYDFDYWGQGTQVTVSS,high polyreactivity
19,QVQLVESGGGLVQAGGSLRLSCAASGFTFQGNAKGCYIQAPGKERELVGAISYDGGSTYYADSVKGRFTISRDNAKNTVYLQMNSLKPEDTAVYYCAAYVGTWYYYWGQGTQVTVSS,high polyreactivity
20,QVQLVESGGGLVQAGGSLRLSCAASGFTFQGNAMGWYRQAPGKERELVAAISWSGGRTYYADSVKGRFTISRDNAKNTVYCQMNSLKPEDTAVYYCAIVYKDVSGDDYWGQGTQVTVSS,low polyreactivity
21,QVQLVESGGGLVQAGGSLRLSCAASGFTFQHNSMGWYRQAPGKERELVAAISLGGSTNYADSVKGRFTISRDNAKNSVYLQMNSLKPEDSAVYYCAAYDWRVLWGYDYWGQGTQVTVSS,low polyreactivity

row,Sequence,polyreactivity (PSR sort gate)
1,QVQLVESGGGLVQAGGSLRLSCAASGFTFQINTMGWYRQAPGKERELVAAINYSGGSTYYADSVKGRFTISRDNAKNTDYLQMNSLKPEDTAVYYCATDHYRNPWRWYRYGYWGQGTQVTVSS,low polyreactivity
2,QVQLVESGGGLVQAGGSLRLSCAASGFTFQKYAMGWYRQAPGKERELVAAISSSGGRTYYADSVKGRFTISRDNAKNTVYLQMNSLKPEDTAVYYCNAVPGYVYDYQYWGQGTQVTVSS,high polyreactivity
3,QVQLVESGGGLVQAGGSLRLSCAASGFTFQKYAMGWYRQAPGKERELVAAISSSGGRTYYADSVKGRFTISRDNAKNTVYLQMNSLKPEDTAVYYCNAVPGYVYYYQYWGQGTQVTVSS,high polyreactivity
4,QVQLVESGGGLVQAGGSLRLSCAASGFTFQNYVMGWYRQAPGKERELVAAINSGGRTYYADSVKGRFTISRDNAKNTVYLQMNSLKPEDTAVYYCNAVQPATYKYRSHVIEYDYWGQGSQVTVSS,high polyreactivity
5,QVQLVESGGGLVQAGGSLRLSCAASGFTFQYYAMGCYRQAPGKERELVAAISARDGSTYYADSVKGRFTISRDNAKNTVYLQMNSLKPEDTAVYYCAARSNYRNAYAYYYWGQGTQVTVSS,high polyreactivity
6,QVQLVESGGGLVQAGGSLRLSCAASGFTFQYYAMGWYIQAPGKERELVATITTSGGNTYYADSVKGRFTISRDNAKNTVYLQMNSLKPEDTAVYYCAARRYRASSRGYGYWGQGTQVTVSS,high polyreactivity
7,QVQLVESGGGLVQAGGSLRLSCAASGFTFQYYAMGWYRQAPGKERELVAAINWSGGRTYYADSVKGRFTISRDNAKNTVYLQMNSLKPEDTAVYYCAATRSFSGGYGYVSYDYWGQGTQVTVSS,high polyreactivity
8,QVQLVESGGGLVQAGGSLRLSCAASGFTFRDNAMGWYRQAPGKERELVAAITRGGSTYYADSVKGRFTISRDNAKNTVYLQMNSLKPEDTAVYYCAKALYRREYSSGGYYRFDYWGQGTQVTVSS,high polyreactivity
9,QVQLVESGGGLVQAGGSLRLSCAASGFTFRDNAMGWYRQAPGKERELVAAITWDGGSTYYADSVKGRFTISRDNAKNTVYLQMYSLKPEDTAVYYCAASRYYPRYFKRYYYWGQGTQVTVSS,high polyreactivity
10,QVQLVESGGGLVQAGGSLRLSCAASGFTFRDNTMGWYRQAPGKERELVASISWSGGSTYYADSVKGRFTFSRDYAKNTVYLQMNSVKPEDTAVYYCAADDGSQYYFVSPHEYDYWGQGTQVTVSS,low polyreactivity
11,QVQLVESGGGLVQAGGSLRLSCAASGFTFRDYAMGWYRQAPGKERELVATITWRVGSTFYADSVKGRFTISRDNAKNTVYLQMNSLKPEDTAVYYCADEDSNVVAYDYWGQGTQVTVSS,low polyreactivity
12,QVQLVESGGGLVQAGGSLRLSCAASGFTFRDYVMGWYTQAPGKERELVAAISRSGASTYYADSVKGRFTISRDNAKNTVYLQMNSLKPEDTAVYYCAKTQAGYSPGTYDYWGQGTQVTVSS,high polyreactivity
13,QVQLVESGGGLVQAGGSLRLSCAASGFTFRENAMGWYRQAPGKERELVAAISKRGGTTYYADSVKGRFTISRDNAKNTVYLQMNSLKPEDTAVYYCAAESYSGPYAYEYWGQGTQVTVSS,high polyreactivity
14,QVQLVESGGGLVQAGGSLRLSCAASGFTFRENTMGWYRQAPGKERELVASISWSGGSTYYADSVKGRFTISRDNAKNTVYLQMNSLKPEDTAVYYCAATYAWLSKGYRGMDYWGQGTQVTVSS,low polyreactivity
15,QVQLVESGGGLVQAGGSLRLSCAASGFTFRINAMGWYRQAPGKERELVAAISWSGGSTYYADSVKGRFTISRDNAKNTVYLQMNSLKPEDTAVYYCNKVQSSRYRSQRTFQYGYWGQGTQVTVSS,high polyreactivity
16,QVQLVESGGGLVQAGGSLRLSCAASGFTFRIYTMGWYRQAPGKERELVAAIRWSDGTTYYADSVKGRFTISRDNAKNTVYLQMNSLKPEDTAVYYCAAYTYYYYYWGQGTQVTVSS,high polyreactivity
17,QVQLVESGGGLVQAGGSLRLSCAASGFTFRKKAMGWYRQAPGKERELVAAIRGSAGSTYYADSVKGRFTNSRDNAKITVYLQMNSLQQEDTAVYYCATGGYPSLWYGYGYWGQGTQVTVSS,low polyreactivity
18,QVQLVESGGGLVQAGGSLRLSCAASGFTFRKNAMGWYRHAPGKERELVAVISSSGGSTSYADSVKRRFTISRDNAKNTVYLQMNSLKPEDTAVYYCAAGSSRLRALYNYWGQGSQVTVSS,high polyreactivity
19,QVQLVESGGGLVQAGGSLRLSCAASGFTFRKNAMGWYRQAPGKERELVAAINSSGGSTYYADSVKGRFTISRDNAKNTVYLQMKSLKQEDTAVYSCNAVGRSLARPRGDYWGQGTQVTVSS,high polyreactivity
20,QVQLVESGGGLVQAGGSLRLSCAASGFTFRKNAMGWYRQAPGKERELVAAISRRGGRTYYADSVKGRFTISRDNAKNTVYLQMNSLKPEDSAVYYCNDDEYGGSSGRKGRYNYWGQGTQVTVSS,low polyreactivity
